Tests used:
[1] = biological target: fused glucose-6-phosphate dehydrogenase-phosphogluconolactonase protein from Trichomonas vaginalis (TvG6PD::6PGL) (Trichomonas vaginalis); assay: SEC; Sephacryl 400 (16/60) gel filtration column, 50 mM phosphate buffer pH 7.35, flow 0.3 mL/min, calibrated with Bio-Rad gel filtration standards; single peak at 59.9 mL; no monomer, dimer or larger aggregates seen
TvG6PD::6PGL = biological target: T1, TvG6PD::6PGL (Trichomonas vaginalis, UniProt A2EC78); assay: intrinsic tryptophan fluorescence quenching titration, excitation […] nm; format: binding
T1 construct: gene TVAG_414060; full-length fused protein, 716 aa, G6PD N-terminal (1-483) and 6PGL C-terminal, 81,692 Da; pET3a-HisTEV, N-terminal His6 tag removed by TEV protease; E. coli BL21(DE3) zwf-deleted; native tetramer
T1 sequence (A2EC78 1-716): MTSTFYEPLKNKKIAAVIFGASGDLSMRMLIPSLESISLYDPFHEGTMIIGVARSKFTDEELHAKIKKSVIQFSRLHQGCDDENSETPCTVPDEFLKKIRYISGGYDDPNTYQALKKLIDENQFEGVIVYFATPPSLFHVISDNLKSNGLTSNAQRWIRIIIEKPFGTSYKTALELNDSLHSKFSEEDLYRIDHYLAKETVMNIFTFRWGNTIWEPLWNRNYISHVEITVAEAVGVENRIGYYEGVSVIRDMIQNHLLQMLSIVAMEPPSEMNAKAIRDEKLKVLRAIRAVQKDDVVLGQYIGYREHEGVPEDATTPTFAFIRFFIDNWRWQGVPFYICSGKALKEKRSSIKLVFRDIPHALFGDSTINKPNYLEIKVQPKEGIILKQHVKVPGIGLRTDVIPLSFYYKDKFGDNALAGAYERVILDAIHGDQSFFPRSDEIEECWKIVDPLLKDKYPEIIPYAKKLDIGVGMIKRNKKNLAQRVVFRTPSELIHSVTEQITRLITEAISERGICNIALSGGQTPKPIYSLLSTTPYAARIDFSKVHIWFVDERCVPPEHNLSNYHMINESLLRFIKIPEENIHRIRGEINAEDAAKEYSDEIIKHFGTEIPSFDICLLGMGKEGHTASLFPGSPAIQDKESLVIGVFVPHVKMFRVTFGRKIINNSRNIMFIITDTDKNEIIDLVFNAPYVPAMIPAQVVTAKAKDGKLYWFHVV

purified protein [2] = substrate: NC(=O)c1ccc[n+]([C@@H]2O[C@H](COP(=O)(O)OP(=O)(O)OC[C@H]3O[C@@H](n4cnc5c(N)ncnc54)[C@H](OP(=O)(O)O)[C@@H]3O)[C@@H](O)[C@H]2O)c1; assay: purified protein; format: biochemical, Trichomonas vaginalis; details: G6P fixed at 1 mM, pH 8.0, apparent Km, catalytic site
purified protein [3] = substrate: O=P(O)(O)OC[C@H]1OC(O)[C@H](O)[C@@H](O)[C@@H]1O; assay: purified protein; format: biochemical, Trichomonas vaginalis; details: NADP+ fixed at 150 uM, pH 8.0, apparent Km

“fused glucose-6-phosphate dehydrogenase-phosphogluconolactonase protein from Trichomonas vaginalis (TvG6PD::6PGL) (enzyme)” showed a stoichiometry N [1] of 4.

For `NC(=O)c1ccc[n+]([C@@H]2O[C@H](COP(=O)(O)OP(=O)(O)OC[C@H]3O[C@@H](n4cnc5c(N)ncnc54)[C@H](OP(=O)(O)O)[C@@H]3O)[C@@H](O)[C@H]2O)c1` [NADP^+], the Kd (TvG6PD::6PGL) was 31 nM.

B1: TvG6PD::6PGL (Trichomonas vaginalis G3) (protein)
chain: MTSTFYEPLKNKKIAAVIFGASGDLSMRMLIPSLESISLYDPFHEGTMIIGVARSKFTDEELHAKIKKSVIQFSRLHQGCDDENSETPCTVPDEFLKKIRYISGGYDDPNTYQALKKLIDENQFEGVIVYFATPPSLFHVISDNLKSNGLTSNAQRWIRIIIEKPFGTSYKTALELNDSLHSKFSEEDLYRIDHYLAKETVMNIFTFRWGNTIWEPLWNRNYISHVEITVAEAVGVENRIGYYEGVSVIRDMIQNHLLQMLSIVAMEPPSEMNAKAIRDEKLKVLRAIRAVQKDDVVLGQYIGYREHEGVPEDATTPTFAFIRFFIDNWRWQGVPFYICSGKALKEKRSSIKLVFRDIPHALFGDSTINKPNYLEIKVQPKEGIILKQHVKVPGIGLRTDVIPLSFYYKDKFGDNALAGAYERVILDAIHGDQSFFPRSDEIEECWKIVDPLLKDKYPEIIPYAKKLDIGVGMIKRNKKNLAQRVVFRTPSELIHSVTEQITRLITEAISERGICNIALSGGQTPKPIYSLLSTTPYAARIDFSKVHIWFVDERCVPPEHNLSNYHMINESLLRFIKIPEENIHRIRGEINAEDAAKEYSDEIIKHFGTEIPSFDICLLGMGKEGHTASLFPGSPAIQDKESLVIGVFVPHVKMFRVTFGRKIINNSRNIMFIITDTDKNEIIDLVFNAPYVPAMIPAQVVTAKAKDGKLYWFHVV
notes: full-length fused protein, 716 aa, G6PD N-terminal (1-483) and 6PGL C-terminal, 81,692 Da; pET3a-HisTEV, N-terminal His6 tag removed by TEV protease; E. coli BL21(DE3) zwf-deleted; native tetramer
With B1 the Km (purified protein [2]) was 27 µM, the kcat (purified protein [2]) was 147 s⁻¹ and the Km (purified protein [3]) was 210 µM. The kcat (purified protein [3]) was 147 s⁻¹.
